We go through seven molecules from article PMC3894171, “Defining NELF-E RNA Binding in HIV-1 and Promoter-Proximal Pause Regions”.

A word on the Kd: it is the concentration at which binding is half-saturated.

Common to all, as to settings: protein: recombinant, tags: N-terminal His6 (pHIS-parallel1), label: 3' fluorescein (5-thiosemicarbazide)
For data set [1], the target named is T1, dNELF-E (Drosophila, UniProt P92204 1-280).
T1 sequence: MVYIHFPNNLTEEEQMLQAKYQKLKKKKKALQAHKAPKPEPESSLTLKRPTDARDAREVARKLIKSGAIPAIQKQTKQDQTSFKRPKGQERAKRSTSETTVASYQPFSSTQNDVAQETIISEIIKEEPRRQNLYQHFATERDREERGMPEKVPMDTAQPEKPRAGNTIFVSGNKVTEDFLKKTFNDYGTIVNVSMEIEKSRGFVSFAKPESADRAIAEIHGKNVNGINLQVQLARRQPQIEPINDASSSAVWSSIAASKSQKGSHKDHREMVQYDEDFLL
The data set is described as follows: fluorescence polarization; 10 mM HEPES-NaOH pH 7.5, 100 mM NaCl, 25 mM KCl, 1 mM MgCl2, 0.02% Tween-20, 0.01% IGEPAL CA-630, 10 µg/ml yeast tRNA; 2 nM RNA, 0-2000 nM protein, 1-2 h, binding temperature not stated; gel 5% acrylamide 0.5X TBE at 4 °C.

In data set [2] the target is T1, dNELF-E. Briefly: F-EMSA; 10 mM HEPES-NaOH pH 7.5, 100 mM NaCl, 25 mM KCl, 1 mM MgCl2, 0.02% Tween-20, 0.01% IGEPAL CA-630, 10 µg/ml yeast tRNA; 2 nM RNA, 0-2000 nM protein, 1-2 h, binding temperature not stated; gel 5% acrylamide 0.5X TBE at 4 °C.
In data set [3] the target is T2, hNELF-E (human, UniProt P18615 1-380). The data set is described as follows: fluorescence polarization; 10 mM HEPES-NaOH pH 7.5, 100 mM NaCl, 25 mM KCl, 1 mM MgCl2, 0.02% Tween-20, 0.01% IGEPAL CA-630, 10 µg/ml yeast tRNA; 2 nM RNA, 0-2000 nM protein, 1-2 h, binding temperature not stated; gel 5% acrylamide 0.5X TBE at 4 °C. In general terms: Polarisation of emitted light reports the rotation of a fluorescent probe.

In data set [4] the target is T2, hNELF-E. The data set is described as follows: F-EMSA; 10 mM HEPES-NaOH pH 7.5, 100 mM NaCl, 25 mM KCl, 1 mM MgCl2, 0.02% Tween-20, 0.01% IGEPAL CA-630, 10 µg/ml yeast tRNA; 2 nM RNA, 0-2000 nM protein, 1-2 h, binding temperature not stated; gel 5% acrylamide 0.5X TBE at 4 °C. (In EMSA bound probe runs differently from free probe, usually more slowly.)
The mark [5] stands for this setting: no predicted secondary structure.

T2 sequence (P18615 whole entry): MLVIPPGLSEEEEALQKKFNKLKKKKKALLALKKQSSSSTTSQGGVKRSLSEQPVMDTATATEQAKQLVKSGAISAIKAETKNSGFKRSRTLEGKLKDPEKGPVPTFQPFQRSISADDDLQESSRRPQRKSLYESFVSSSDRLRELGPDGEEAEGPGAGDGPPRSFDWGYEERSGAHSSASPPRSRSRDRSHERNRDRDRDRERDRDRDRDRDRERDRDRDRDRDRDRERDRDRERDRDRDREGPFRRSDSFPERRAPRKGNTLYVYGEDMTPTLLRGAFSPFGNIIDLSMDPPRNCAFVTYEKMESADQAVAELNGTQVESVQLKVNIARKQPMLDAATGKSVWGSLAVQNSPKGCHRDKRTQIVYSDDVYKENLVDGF

Consider GGCCCCACUGAGGAUGCCCACGGGCGUCCUCAGUGGGGCCA (structured_RNA) [Napt1+hairpin], for which the Kd with dNELF-E [1] (hairpin, NBE base-paired) was 470 ± 170 nM; with dNELF-E [2] (hairpin, NBE base-paired), 810 ± 50 nM.

B1: HIV-1 TAR+A (structured_RNA)
RNA: GGUCUCUCUGGUUAGACCAGAUCUGAGCCUGAGGAGCUCUCUGGCUAACUAGGGAACC
B1: the dissociation constant (Kd) came out at 250 ± 20 nM with hNELF-E [3] (hairpin with UCU bulge), 82 ± 1 nM with dNELF-E [1] (hairpin with UCU bulge), 250 ± 20 nM with hNELF-E [4] (hairpin with UCU bulge) and 59 ± 2 nM in the data set with dNELF-E [2] (hairpin with UCU bulge).

B2: HIV-1 TAR (structured_RNA)
RNA: GGUCUCUCUGGUUAGACCAGAUCUGAGCCUGGGAGCUCUCUGGCUAACUAGGGAACC
Take B2: the dissociation constant Kd with hNELF-E [3] (hairpin with UCU bulge) was found to be 200 ± 10 nM; with dNELF-E [1] (hairpin with UCU bulge), 130 ± 10 nM; with hNELF-E [4] (hairpin with UCU bulge), 300 ± 20 nM; with dNELF-E [2] (hairpin with UCU bulge), 350 ± 35 nM.

B3: Napt25min (structured_RNA)
RNA: GGUCUCCAACUGAGGAUACCGCUCGAGGAAGCGAGUGGCGAUUUGGAGACCU
For B3, the dissociation constant Kd with dNELF-E [1] (putative K-turn stem-loop) stood at 30 ± 2 nM; in the data set with dNELF-E [2] (putative K-turn stem-loop), 53 ± 9 nM.
For GGCCCCACUGAGGAUGCCCACGGGCGAUUGGGGCCA (structured_RNA) [Napt1min], the Kd turned out to be 140 ± 10 nM in the data set with hNELF-E [3] (putative K-turn stem-loop), 21 ± 7 nM with dNELF-E [1] (putative K-turn stem-loop), 420 ± 90 nM in the data set with hNELF-E [4] (putative K-turn stem-loop) and 44 ± 22 nM with dNELF-E [2] (putative K-turn stem-loop).
GGCCCCAUCAAAGAUGCCCACGGGCGAUUGGGGCCA (structured_RNA) [Napt1NBEmut]: in the data set with dNELF-E [2] (predicted structure kept as in Napt1min), the Kd was 880 ± 170 nM.
For GGGGACUGAGGAGCAACACGGGCGAUUGGGGCCA (ssRNA) [Napt1-Δstem], the figures for the Kd with dNELF-E [1] (setting [5]) and with dNELF-E [2] (setting [5]) were 270 ± 130 nM and 205 ± 20 nM, respectively.
